In the supplement of paper PMC11865577:

Tests used:
Assay in all cases: pull-down binding Z-score (relative to library population); higher = stronger binding
Settings in all cases: RNA library: Library-2
[1] = tested on: TO-3-N3-2 (biotin conjugate)
Summary of the method: (§1)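 Streptavidin beads with 100 pmol of biotin-conjugated small molecule were incubated for 60 min at 25 °C with 1 μg of heat-folded Cy5- or Cy3-end-labelled RNA library in phosphate/NaCl/KCl buffer. Bound RNA was eluted in hot SDS after three washes and hybridised to a DNA barcode microarray at 55.5 °C for 20 h. Each binding score is a library-referenced Z-score, computed after beads-only subtraction and a trimmed mean of barcoded replicate probes.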

[2] = tested on: TO-3-N3 (biotin conjugate)
Summary of the method: as §1

TO-N3 (biotin conjugate) = tested on: TO-N3 (biotin conjugate)
Summary of the method: as §1

[3] = tested on: TO-N3-2 (biotin conjugate)
Summary of the method: as §1

| Sequence | pull-down binding Z-score [1] | pull-down binding Z-score [2] | pull-down binding Z-score (TO-N3 (biotin conjugate)) | pull-down binding Z-score [3] |
| --- | --- | --- | --- | --- |
| CAUGAGCAGUGCUGACUCAACUCAGGCCUAAACUCAUG | 0.0138 | -0.197 | 0.27 | 0.83 |
| UGCAGCAGAAACGCUCA [SHAPE_invitro_SARS-CoV-2_Motif_303] | 0.0228 | 0.273 | 0.371 | 0.533 |
| CAAAUGUGCCUUUCAACUCUCAUGAAGUGUGAUCAUUGUGGUGAAACUUCAUGGCAGACGGGCGAUUUUG | -0.412 | -0.685 | -0.576 | 0.555 |
| GUUUUAAUUAUGCUUAUUAUCUUUUGGUUCUCACUUGAACUGCAAGAUCAUAAUGAAAC | -0.144 | -0.212 | -0.503 | -1.02 |
| UCCACACGCAAGUUGUGGA | -0.579 | -0.719 | -1.18 | -1.4 |
| CAGUUUGGUCCAACUUAUUUGGAUGGAGCUG | -0.514 | -0.686 | -1 | -0.976 |
| AUGGUCUUUGUUCUUUUUUUUGUAUGAAAAUGCCUUUUUACCUUUUGCUAUGGGUAUUAUUGCUAU | 0.135 | -0.455 | -0.507 | -0.569 |
| UAGUUUUAAGGAAUUA | -0.519 | -0.826 | -1.1 | -1.56 |
| GCGCUGCCAGAAACUGGCUCAGCGC [bulge-UC] | -0.576 | -0.319 | -0.584 | -0.361 |
| GCUAAAGAUACUACUGAAGCCUUUGAAAAAAUGGUUUCACUACUUUCUGUUUUGC [SHAPE_invitro_SARS-CoV-2_Motif_217] | 0.0624 | 0.0938 | 0.166 | -0.245 |
| AUGUACUUGGAUUGGCUGCAAUCAUGCAAUUGUUUUUCAGCUAUUUUGCAGUACAU | -0.577 | -0.182 | -0.401 | -0.271 |
| CUCAGAGUAGAAAUUUACAAGAAUUUAAACCCAGGAG [DMSMaPseq_invitro_SARS-CoV-2_Motif_359] | -0.119 | -0.646 | -0.463 | -0.531 |
| AUAUGUUUACACCACUAAUUCAACCUAUUGGUGCUUUGGACAUAU [DMSMaPseq_invitro_SARS-CoV-2_Motif_171] | -0.311 | -0.425 | -0.635 | -0.719 |
| UAUGAGGUUUAGAAGAGCUUUUGGUGAAUACAGUCAUGUAGUUGCCUUUAAUACUUUACUAUUCCUUAUG | -0.231 | -0.502 | -0.62 | -0.84 |
| AUAAUAAGAGGCUGGAUUUUUGGUACUACUUUAGAUUCGAAGACCCAGUCCCUACUUAUUGU | -0.168 | -0.735 | -0.881 | -0.612 |
| GAGGCUAUGUACACACCGCAUACAGUCUUACAGGCUGUUGGGGCUUGUGUUCUUUGCAAUUC [SHAPE_invitro_SARS-CoV-2_Motif_296] | -0.158 | -0.256 | 0.112 | 0.485 |
| GGGUGGGUGGGUGGGUGGGUGGGU [G4_r(GGGU)6] | 10.9 | 9.01 | 7.43 | 5.53 |
| GUUGUCUUUGAUGAAAUUUCAAUGGCCAC [DMSMaPseq_invitro_SARS-CoV-2_Motif_310] | -0.29 | -0.693 | -0.615 | 0.376 |
| CCCAAUCGUGGCGUGUCGGCCUGCUUCGGCAGGCACUGGCGCCG [Pepper530] | 0.0777 | 0.37 | 0.516 | 1.13 |
| GUCCUAAAGUGAAGUAUUUAUACUUUAUUAAAGGAU [SHAPE_invivo_SARS-CoV-2_Motif_244] | -0.605 | -0.854 | -1.19 | -1.51 |
| UCUAAAUGAAACUCUUGUUACAAUGCCACUUGGCUAUGUAACACAUGGCUUAAAUUUGGA | -0.364 | -1.01 | -1.16 | -1.03 |
| GUACAUGGGCACACUUUCUUAUGAACAAUUUAAGAAAGGUGUUCAGAUACCUUGUAC [SHAPE_invitro_SARS-CoV-2_Motif_110] | -0.44 | -0.767 | -1.06 | -1.11 |
| GUAGAGGAGGCAAAGACAGUGCUUAAAAAGUGUAAAAGUGCCUUUUAC | 0.448 | -0.449 | -0.193 | 0.576 |
| CUUAUGUUGGUUGCCAUAACAAGUGUGCCUAUUGGGUUCCACGUGCUAGCGCUAACAUAGG | -0.751 | -1.06 | -1.11 | -0.75 |
| GCGCUGCCAGAAACUGGCUUUAGCGC [bulge-UUU] | -0.158 | -0.00635 | -0.24 | -0.562 |

| Sequence | pull-down binding Z-score [1] | pull-down binding Z-score [2] | pull-down binding Z-score (TO-N3 (biotin conjugate)) | pull-down binding Z-score [3] |
| --- | --- | --- | --- | --- |
| GCUUUAGUCUACUUCUUGCAGAGUAUAAACUUUGUAAGAAUAAUAAUGAGGC [SHAPE_invitro_SARS-CoV-2_Motif_467] | -0.169 | 0.0529 | 0.0166 | -0.561 |
| UAAUUAUAAAUUACCAGAUGAUUUUACAGGCUGCGUUAUAGCUUGGAAUUCUAACAAUCUUGAUUCUAAGGUUGGUGGUAAUUAUAAUUA | 0.371 | -0.486 | -0.838 | -0.713 |
| GGCCAGGUUUCAAGGCC [IAV_invivo_PA_3_Motif_22+IAV_invivo_PA_3_Motif_22] | -0.644 | -0.64 | -0.785 | -0.29 |
| GGCGAUUUUGUUAAAGCCACUUGCGAAUUUUGUGGCACUGAGAAUUUGACUAAAGAAGGUGCCACUACUUGUGGUUACUUACCCCAAAAUGCU | 0.278 | 0.452 | 0.66 | 0.59 |
| AAGAAGCUGCGCUGUGCACCUUUUU [DMSMaPseq_invitro_SARS-CoV-2_Motif_178] | -0.354 | -0.433 | -0.0759 | 0.126 |
| AUGCUGACGAUGGUCAUUUUGUCAGCAU [IAV_invivo_M1_M2_7_Motif_18+IAV_invivo_M1_M2_7_Motif_18] | 0.337 | 0.0275 | -0.322 | -0.84 |
| ACCAGUUAACUGGU [SHAPE_invitro_SARS-CoV-2_Motif_121] | -0.55 | -0.713 | -1.1 | -1.19 |
| UAGUCCUGUUGCACUACGACAGAUGUCUUGUGCUGCCGGUACUA [DMSMaPseq_invitro_SARS-CoV-2_Motif_226] | -0.381 | -0.727 | -0.821 | -0.478 |
| CUCGUCUAUCUUCUGCAGGCUGCUUACGGUUUCGUCCGUGUUGCAGCCGAUCAUCAGCACAUCUAGGUUUCGUCCGGGUGUGACCGAAAGGUAAGAUGGAGAG | -0.556 | -0.0693 | -0.000928 | 0.408 |
| AACAGGAGUCACCUUUUGUU | -0.0265 | -0.0743 | -0.267 | -0.716 |
| AUGGUGCUAACAAAGACGGCAUCAU [SHAPE_invivo_SARS-CoV-2_Motif_545] | -0.105 | 0.0674 | -0.143 | -0.639 |
| CUUCUUGAAAUACUCCAAAAAGAGAAAGUCAACAUCAAUAUUGUUGGUGACUUUAAACUUAAUGAAG | -0.0464 | 0.115 | -0.0282 | -0.596 |
| GCUGGUCUGACUCACAUGAUGAUCUGGC [IAV_invivo_NP_5_Motif_8+IAV_invivo_NP_5_Motif_8] | -0.265 | -0.624 | -0.454 | 0.653 |
| UCUGCCUAUACAGUUGAACUCGGUACAGAAGUAAAUGAGUUCGCCUGUGUUGUGGCAGA [SHAPE_invivo_SARS-CoV-2_Motif_57] | -0.334 | -0.71 | -0.415 | 1.36 |
| AGUGUUUGCCUAGGUUCUUUAAUCUACUCAACCGCU | -0.219 | -0.346 | -0.288 | -0.432 |
| UGGUUUCCAACCCACUAAUGGUGUUGGUUACCA | -0.442 | -0.662 | -1.05 | -1.18 |
| ACCUUUAGUACCUUUCUGGAUAACAAUUGCUUAUAUCAUUUGUAUUUCCACAAAGCAUUUCUAUUGGU | -0.225 | 0.707 | 0.513 | -0.25 |
| GGAAUGGAUCCC [IAV_invivo_NP_5_Motif_9+IAV_invivo_NP_5_Motif_9] | -0.0967 | -0.119 | -0.323 | -0.367 |
| GGGUAGGGUUUGGGGGAGAGUGUGGGCUGGGGUUCAGGGACA [pre-miRNA-1229_SNP_FL] | 7.5 | 6.68 | 6.27 | 4.79 |
| GGAGAGUGUGGACACUUAUGAAUGUCUUGACACUCGUU [SHAPE_invitro_SARS-CoV-2_Motif_211] | 0.121 | 0.331 | 0.586 | 0.364 |
| GCGCUGCCAGAAACUGGCCGCGC [mismatch-UC] | -0.66 | -0.648 | -0.905 | -0.896 |
| GUUGAUGAGCCUGAAGAACAUGUCCAAAUUCACACAAUCGACGGUUCAUCCGGAGUUGUUAAUCCAGUAAUGGAACCAAUUUAUGAUGAACCGACGACGAC | -0.311 | 0.104 | 0.862 | 0.77 |
| GGCGUCUCAAGGCACC [IAV_invivo_NP_5_Motif_2+IAV_invivo_NP_5_Motif_2] | -0.687 | 0.308 | 0.151 | -0.084 |
| CAUCAACCAUAUGUAGUUGAUG | -0.283 | -0.47 | -0.872 | -1.15 |
| GCUGUUGGUACCAAUUUACCUUUACAGC [SHAPE_invitro_SARS-CoV-2_Motif_335] | -0.037 | 0.416 | 0.215 | -0.561 |
